From US20220119534A1 (DRAGONFLY THERAPEUTICS, published 2022)

T1: human CLEC12A on cells (HL60, PL21, Ba/F3-hCLEC12A) (human, UniProt Q5QGZ9 1-265)
T1 construct: Endogenous on the AML lines HL60 and PL21; brought into mouse Ba/F3 cells by retroviral transduction; The cell line stands under assay; also called CLL-1
T1 sequence: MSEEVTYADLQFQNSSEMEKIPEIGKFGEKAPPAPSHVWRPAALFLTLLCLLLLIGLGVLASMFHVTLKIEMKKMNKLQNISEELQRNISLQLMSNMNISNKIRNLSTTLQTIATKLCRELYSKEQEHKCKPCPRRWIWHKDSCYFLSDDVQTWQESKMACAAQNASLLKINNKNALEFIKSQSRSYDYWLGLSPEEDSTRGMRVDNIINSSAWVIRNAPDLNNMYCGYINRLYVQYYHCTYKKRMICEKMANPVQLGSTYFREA

T2: recombinant human CLEC12A-His (human, UniProt Q5QGZ9 65-265)
T2 construct: also called hCLEC12A-His; hCLEC12A
T2 sequence: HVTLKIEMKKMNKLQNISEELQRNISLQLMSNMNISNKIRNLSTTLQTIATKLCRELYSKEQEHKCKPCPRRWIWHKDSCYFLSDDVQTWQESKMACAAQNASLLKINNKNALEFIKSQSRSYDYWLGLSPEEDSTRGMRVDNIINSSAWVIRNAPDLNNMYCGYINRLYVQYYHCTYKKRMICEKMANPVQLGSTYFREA


Experiments:
[1] = target: T1, human CLEC12A on cells (HL60, PL21, …); assay: flow cytometry, PL21 cells
Description: (§1) 100,000 cells were seeded per well into a 96-well plate for FACS staining. Cells were washed with PBS. Cells were incubated in a 1:2000 dilution of live/dead dye in PBS for 15 minutes, then washed with FACS buffer. TriNKETs or mAbs were diluted into FACS buffer, and 50 μl containing diluted TriNKET or mAb was added to cells. Cells were incubated on ice for 20 minutes. After the incubation, cells were washed with FACS buffer. Anti-human IgG-Fc secondary antibody was diluted into FACS buffer, and 50 μl was added per well for detection of the bound TriNKETs or mAbs. Cells were incubated for 20 minutes on ice, then washed with FACS buffer. 50 μl of fixation buffer was added to each well, and cells were incubated for 10 minutes at room temperature. Cells were washed with FACS buffer and resuspended in FACS buffer for analysis with BD FACS Celesta SN #H66034400085, or BD FACS Celesta SN #H66034400160. Cells of interest were identified using FSC vs. SSC plot, and an appropriately shaped gate was drawn around the cells. Within the gated cells, doublet cells were removed by viewing FSC-H vs FSC-A plot. Within the single cell population, live cells were gated. Within the live gate, the mean fluorescence intensity (MFI) of each sample and the secondary-only control was calculated. Fold-over-background (FOB) was calculated as the ratio of test article MFI over secondary-only background MFI. Data were fit to a four-parameter non-linear regression curve using GraphPad Prism 7.0.

[2] = target: T1, human CLEC12A on cells (HL60, PL21, …); assay: flow cytometry, Ba/F3-hCLEC12A cells
Description: as §1

[3] = target: T1, human CLEC12A on cells (HL60, PL21, …); assay: flow cytometry, HL60 cells
Description: as §1

[4] = target: T2, recombinant human CLEC12A-His; assay: SPR screening, semi-purified

Binder	EC50 [1]	FOB (fold over background) [1]	EC50 [2]	FOB (fold over background) [2]	EC50 [3]	FOB (fold over background) [3]	Kd [4]	koff [4]	kon [4]
AB0300 (other, name in EU numbering, Positions are EU numbers, not positions counted on the entries; also called AB0237si) QLQLQESGPGLVKPSETLSLTCTVSGFSLTNYGLHWIRQPPGKCLEWIGVIWSGGKTDYNPSLKSRVTISKDTSKNQFSLKLSSVQAADTAVYYCAKYDYDDSLDYWGQGTLVTVSSGGGGSGGGGSGGGGSGGGGSDIQMTQSPSSLSASVGDRVTITCHASQNINFWLSWYQQKPGKAPKLLIYEASNLHTGVPSRFSGSGSGTRFTLTISSLQPEDIATYYCQQSHSYPLTFGCGTKLEIKGSDKTHTCPPCPAPEAAGGPSVFLFPPKPKDTLMISRTPEVTCVVVDVSHEDPEVKFNWYVDGVEVHNAKTKPREEQYNSTYRVVSVLTVLHQDWLNGKEYKCKVSNKALGAPIEKTISKAKGQPREPRVYTLPPCRDELTKNQVSLTCLVKGFYPSDIAVEWESNGQPENNYKTTPPVLVSDGSFTLYSKLTVDKSRWQQGNVFSCSVMHEALHNHYTQKSLSLSPG heavy: EVQLVESGGGLVKPGGSLRLSCAASGFTFSSYSMNWVRQAPGKGLEWVSSISSSSSYIYYADSVKGRFTISRDNAKNSLYLQMNSLRAEDTAVYYCARGAPIGAAAGWFDPWGQGTLVTVSSASTKGPSVFPLAPSSKSTSGGTAALGCLVKDYFPEPVTVSWNSGALTSGVHTFPAVLQSSGLYSLSSVVTVPSSSLGTQTYICNVNHKPSNTKVDKKVEPKSCDKTHTCPPCPAPEAAGGPSVFLFPPKPKDTLMISRTPEVTCVVVDVSHEDPEVKFNWYVDGVEVHNAKTKPREEQYNSTYRVVSVLTVLHQDWLNGKEYKCKVSNKALGAPIEKTISKAKGQPREPQVCTLPPSRDELTENQVSLTCLVKGFYPSDIAVEWESNGQPENNYKTTPPVLDSDGSFFLYSWLTVDKSRWQQGNVFSCSVMHEALHNHYTQKSLSLSPG light: DIQMTQSPSSVSASVGDRVTITCRASQGISSWLAWYQQKPGKAPKLLIYAASSLQSGVPSRFSGSGSGTDFTLTISSLQPEDFATYYCQQGVSFPRTFGGGTKVEIKRTVAAPSVFIFPPSDEQLKSGTASVVCLLNNFYPREAKVQWKVDNALQSGNSQESVTEQDSKDSTYSLSSTLTLSKADYEKHKVYACEVTHQGLSSPVTKSFNRGEC	1.58 nM	18 fold	2.92 nM	368 fold	1.5 nM	65 fold	–	–	–
AB0188 (other, As AB0185) DIKMTQSPSSLSASVGDRVTITCKASQDIYNYLSWFQQKPGKAPKPLIYRANILVSGVPSRFSGSGSGQDYTLTISSLQPEDIATYYCLQFDAFPFTFGCGTKLEIKGGGGSGGGGSGGGGSGGGGSEVQLVESGGGVVQPGGSLRLSCAASGFTFNSFGMHWVRQAPGKCLEWVAFISSGSTSIYYANTVKGRFTISRDNSKNTLYLQMNSLRAEDTAVYYCARDGYPTGGAMDYWGQGTSVTVSSGSDKTHTCPPCPAPELLGGPSVFLFPPKPKDTLMISRTPEVTCVVVDVSHEDPEVKFNWYVDGVEVHNAKTKPREEQYNSTYRVVSVLTVLHQDWLNGKEYKCKVSNKALPAPIEKTISKAKGQPREPRVYTLPPCRDELTKNQVSLTCLVKGFYPSDIAVEWESNGQPENNYKTTPPVLVSDGSFTLYSKLTVDKSRWQQGNVFSCSVMHEALHNHYTQKSLSLSPG heavy: EVQLVESGGGLVKPGGSLRLSCAASGFTFSSYSMNWVRQAPGKGLEWVSSISSSSSYIYYADSVKGRFTISRDNAKNSLYLQMNSLRAEDTAVYYCARGAPIGAAAGWFDPWGQGTLVTVSSASTKGPSVFPLAPSSKSTSGGTAALGCLVKDYFPEPVTVSWNSGALTSGVHTFPAVLQSSGLYSLSSVVTVPSSSLGTQTYICNVNHKPSNTKVDKKVEPKSCDKTHTCPPCPAPELLGGPSVFLFPPKPKDTLMISRTPEVTCVVVDVSHEDPEVKFNWYVDGVEVHNAKTKPREEQYNSTYRVVSVLTVLHQDWLNGKEYKCKVSNKALPAPIEKTISKAKGQPREPQVCTLPPSRDELTENQVSLTCLVKGFYPSDIAVEWESNGQPENNYKTTPPVLDSDGSFFLYSWLTVDKSRWQQGNVFSCSVMHEALHNHYTQKSLSLSPG light: DIQMTQSPSSVSASVGDRVTITCRASQGISSWLAWYQQKPGKAPKLLIYAASSLQSGVPSRFSGSGSGTDFTLTISSLQPEDFATYYCQQGVSFPRTFGGGTKVEIKRTVAAPSVFIFPPSDEQLKSGTASVVCLLNNFYPREAKVQWKVDNALQSGNSQESVTEQDSKDSTYSLSSTLTLSKADYEKHKVYACEVTHQGLSSPVTKSFNRGEC	–	–	–	–	–	–	1.58 nM	0.000901 s⁻¹	569000 M⁻¹ s⁻¹

The remaining binders from weak to strong by EC50 [1], led by results:

EC50 [1]	FOB (fold over background) [1]	EC50 [2]	FOB (fold over background) [2]	EC50 [3]	FOB (fold over background) [3]	Kd [4]	koff [4]	kon [4]	Binder
0.63 nM	14 fold	2.35 nM	357 fold	1.19 nM	59 fold	–	–	–	AB0237-Dead-2D (other, also called AB0237 NKG2D dead arm variant) QLQLQESGPGLVKPSETLSLTCTVSGFSLTNYGLHWIRQPPGKCLEWIGVIWSGGKTDYNPSLKSRVTISKDTSKNQFSLKLSSVQAADTAVYYCAKYDYDDSLDYWGQGTLVTVSSGGGGSGGGGSGGGGSGGGGSDIQMTQSPSSLSASVGDRVTITCHASQNINFWLSWYQQKPGKAPKLLIYEASNLHTGVPSRFSGSGSGTRFTLTISSLQPEDIATYYCQQSHSYPLTFGCGTKLEIKGSDKTHTCPPCPAPELLGGPSVFLFPPKPKDTLMISRTPEVTCVVVDVSHEDPEVKFNWYVDGVEVHNAKTKPREEQYNSTYRVVSVLTVLHQDWLNGKEYKCKVSNKALPAPIEKTISKAKGQPREPRVYTLPPCRDELTKNQVSLTCLVKGFYPSDIAVEWESNGQPENNYKTTPPVLVSDGSFTLYSKLTVDKSRWQQGNVFSCSVMHEALHNHYTQKSLSLSPG heavy: EVQLVESGGGLVKPGGSLRLSCAASGFTFSSYSMNWVRQAPGKGLEWVSSISSSSSYIYYADSVKGRFTISRDNAKNSLYLQMNSLRAEDTAVYYCARGAPIGAAAGWFDPWGQGTLVTVSSASTKGPSVFPLAPSSKSTSGGTAALGCLVKDYFPEPVTVSWNSGALTSGVHTFPAVLQSSGLYSLSSVVTVPSSSLGTQTYICNVNHKPSNTKVDKKVEPKSCDKTHTCPPCPAPELLGGPSVFLFPPKPKDTLMISRTPEVTCVVVDVSHEDPEVKFNWYVDGVEVHNAKTKPREEQYNSTYRVVSVLTVLHQDWLNGKEYKCKVSNKALPAPIEKTISKAKGQPREPQVCTLPPSRDELTENQVSLTCLVKGFYPSDIAVEWESNGQPENNYKTTPPVLDSDGSFFLYSWLTVDKSRWQQGNVFSCSVMHEALHNHYTQKSLSLSPG light: DIQMTQSPSTLSASVGDRVTITCRASNSISSWLAWYQQKPGKAPKLLIYEASSTKSGVPSRFSGSGSGTEFTLTISSLQPDDFATYYCQQYDDLPTFGGGTKVEIKRTVAAPSVFIFPPSDEQLKSGTASVVCLLNNFYPREAKVQWKVDNALQSGNSQESVTEQDSKDSTYSLSSTLTLSKADYEKHKVYACEVTHQGLSSPVTKSFNRGEC
0.55 nM	10 fold	2.87 nM	318 fold	1.33 nM	31 fold	–	–	–	hcFAE-A49.h6E7 (Duobody TriNKET) (bispecific antibody, V domains shown, also called Duobody TriNKET based on h6E7 antibody from Genentech) VH 1: EVQLVQSGAEVKKPGASVKVSCKASGYSFTDYYMHWVRQAPGQGLEWIGRINPYNGAAFYSQNFKDRVTLTVDTSTSTAYLELSSLRSEDTAVYYCAIERGADLEGYAMDYWGQGTLVTVSS VL 1: DIQMTQSPSSLSASVGDRVTITCRASQSVSTSSYNYMHWYQQKPGKPPKLLIKYASNLESGVPSRFSGSGSGTDFTLTISSLQPEDFATYYCQHSWEIPLTFGQGTKVEIK VH 2: EVQLVESGGGLVKPGGSLRLSCAASGFTFSSYSMNWVRQAPGKGLEWVSSISSSSSYIYYADSVKGRFTISRDNAKNSLYLQMNSLRAEDTAVYYCARGAPMGAAAGWFDPWGQGTLVTVSS VL 2: DIQMTQSPSSVSASVGDRVTITCRASQGISSWLAWYQQKPGKAPKLLIYAASSLQSGVPSRFSGSGSGTDFTLTISSLQPEDFATYYCQQGVSFPRTFGGGTKVEIK
